From patent publication US20180037631A1 (Bristol-Myers Squibb, published 2018)
Where “and” joins values, the source holds several entries; their conditions need not be identical. Equal values may be shown once. Read-outs that look alike come from different tables or passages of the source.

Tests used:
[1] = target: T1, IGF1R-Fc (extracellular domain of human IGF1R aa 1-932 fused to hinge and constant regions of human IgG1) (human, UniProt P08069 31-932)
T1 construct: range 1-932; made in house by transient transfection, purified on Protein A; also called IGF-IR-Fc; not shown: hinge and constant regions of human IgG1

[2] = target: T2, Recombinant human EGFR-Fc (aa 1-645 of the extracellular domain of human EGFR fused to human Fc) (human, UniProt P00533 25-645)
T2 construct: range 1-645; bought from R&D Systems; also called EGFR645-Fc; EGFR-Fc (HER-1); not shown: human Fc

[3] = target: T3, IGF-IR on human tumour cells (H292, MCF-7, RH41) (human, UniProt P08069 31-1367); assay: cell-based or functional assay
[4] = target: T4, EGFR on the surface of human tumour cells (A431, H292) (human, UniProt P00533 25-1210); assay: cell-based or functional assay
[5] = target: T4, EGFR on the surface of human tumour …
[6] = target: T2, Recombinant human EGFR-Fc (aa 1-645 of …); remark: listed apart in the source
monkey EGFR = monkey EGFR (monkey); assay: SPR Biacore
rat EGFR = rat EGFR (rat, UniProt A0ABK0LZB0 35-1214); assay: SPR Biacore
mouse EGFR = mouse EGFR (mouse, UniProt Q01279 25-647, limits assumed); assay: SPR Biacore
[7] = target: T1, IGF1R-Fc (extracellular domain of human …); remark: listed apart in the source
[8] = target: T4, EGFR on the surface of human tumour …; remark: listed apart in the source
[9] = target: T3, IGF-IR on human tumour cells (H292, …); assay: cell-based or functional assay; remark: listed apart in the source
[10] = target: T4, EGFR on the surface of human tumour …; assay: cell-based or functional assay; remark: listed apart in the source
[11] = target: T4, EGFR on the surface of human tumour …; assay: cell-based or functional assay; remark: listed apart in the source
[12] = target: T4, EGFR on the surface of human tumour …; remark: listed apart in the source
[13] = target: T1, IGF1R-Fc (extracellular domain of human …); remark: listed apart in the source
[14] = target: T3, IGF-IR on human tumour cells (H292, …); assay: cell-based or functional assay; remark: listed apart in the source
[15] = target: T4, EGFR on the surface of human tumour …; assay: cell-based or functional assay; remark: listed apart in the source
[16] = target: T4, EGFR on the surface of human tumour …; assay: cell-based or functional assay; remark: listed apart in the source
[17] = target: T2, Recombinant human EGFR-Fc (aa 1-645 of …); remark: listed apart in the source
[18] = target: T3, IGF-IR on human tumour cells (H292, …); assay: cell-based or functional assay; remark: listed apart in the source

Binder	Kd [1]	koff [1]	kon [1]	Kd [2]	koff [2]	IC50, IGF1-stimulated IGFR phosphorylation, H292 cells, ELISA [3]	IC50, EGF-stimulated EGFR phosphorylation, A431 cells, In Cell Western [4]	IC50, EGF-stimulated EGFR phosphorylation, H292 cells, ELISA [4]	IC50, EGF-stimulated ERK phosphorylation, A431 cells, In Cell Western [4]	IC50 [8]	IC50 [12]	Kd [13]	H292 pIGF-IR IC50 (ELISA) [14]	A431 pEGFR IC50 (In-Cell Western) [15]	A431 pERK IC50 (In-Cell Western) [15]	H292 pEGFR IC50 (ELISA) [15]	Kd [17]	kon [2]	further results
I1-GS10-E1, His-tagged, non-pegylated (designed binder) MGVSDVPRDLEVVAATPTSLLISWSARLKVARYYRITYGETGGNSPVQEFTVPKNVYTATISGLKPGVDYTITVYAVTRFRDYQPISINYRTEIDKGSGSGSGSGSGSGSGSGSGSVSDVPRDLEVVAATPTSLLISWVAGAEDYQYYRITYGETGGNSPVQEFTVPHDLVTATISGLKPGVDYTITVYAVTDMMHVEYTEHPISINYRTEIDKPSQHHHHHH	0.27 nM	0.000398 s⁻¹	1.47e+06 M⁻¹ s⁻¹	4.8 nM and 10.3 nM	0.000603 s⁻¹ and 0.000425 s⁻¹	1 nM	93 nM	42 nM	99 nM										IC50 [5]: 7 nM
I1GS10-E3 (Pegylated) (designed binder, Cys of the C-terminal Cys tail conjugated to 40 kDa branched PEG) I/E tandem 10Fn3 chain: MGVSDVPRDLEVVAATPTSLLISWSARLKVARYYRITYGETGGNSPVQEFTVPKNVYTATISGLKPGVDYTITVYAVTRFRDYQPISINYRTEIDKGSGSGSGSGSGSGSGSGSGSVSDVPRDLEVVAATPTSLLISWLPGKLRYQYYRITYGETGGNSPVQEFTVPHDLRTATISGLKPGVDYTITVYAVTNMMHVEYSEYPISINYRTEIDKPCQHHHHHH						2 nM	47 nM	46 nM	50 nM										
E4-GS10-I1 pegylated, His-tagged (designed binder, 40 kDa branched PEG on the Cys of the C-terminal Cys tail, also called E4-GS10-I1 (with Peg)) MGVSDVPRDLEVVAATPTSLLISWHERDGSRQYYRITYGETGGNSPVQEFTVPGGVRTATISGLKPGVDYTITVYAVTDYFNPTTHEYIYQTTPISINYRTEIDKGSGSGSGSGSGSGSGSGSGSVSDVPRDLEVVAATPTSLLISWSARLKVARYYRITYGETGGNSPVQEFTVPKNVYTATISGLKPGVDYTITVYAVTRFRDYQPISINYRTEIDKPCQHHHHHH										19.5 nM									Kd [6]: 4.77 nM; Kd (monkey EGFR): 5.7 nM; Kd (rat EGFR): 5.6 nM; Kd (mouse EGFR): 6.9 nM; Kd [7]: 0.77 nM; IC50, IGF1-stimulated IGFR phosphorylation, H292 cells, ELISA [9]: 0.4 nM; IC50, EGF-induced EGFR phosphorylation, A431 cells, In Cell Western [10]: 12 nM; IC50, EGF-induced ERK phosphorylation, A431 cells, In Cell Western [10]: 12 nM; IC50, EGF-stimulated EGFR phosphorylation, H292 cells, ELISA [10]: 1.3 nM; H292 colony formation assay IC50 [11]: 5 nM
E1-GS10-I1 pegylated, His-tagged (designed binder, 40 kDa branched PEG on the Cys of the C-terminal Cys tail, also called E1-GS10-I1 (with PEG)) MGVSDVPRDLEVVAATPTSLLISWVAGAEDYQYYRITYGETGGNSPVQEFTVPHDLVTATISGLKPGVDYTITVYAVTDMMHVEYTEHPISINYRTEIDKGSGSGSGSGSGSGSGSGSGSVSDVPRDLEVVAATPTSLLISWSARLKVARYYRITYGETGGNSPVQEFTVPKNVYTATISGLKPGVDYTITVYAVTRFRDYQPISINYRTEIDKPCQHHHHHH										238 nM	396 nM	2.4 nM	4 nM	297 nM	295 nM	123 nM	57.9 nM		Kd [7]: 2.43 nM; inhibition of EGF induced EGFR phosphorylation, A431, IC50 [16]: 297 nM; inhibition of EGF induced ERK phosphorylation, A431, IC50 [16]: 295 nM; inhibition of EGFR activity, H292 cells, IC50 [16]: 123 nM
E3-GS10-I1 pegylated, His-tagged (designed binder, 40 kDa branched PEG on the Cys of the C-terminal Cys tail, also called E3-GS10-I1-Cys (with his)) MGVSDVPRDLEVVAATPTSLLISWLPGKLRYQYYRITYGETGGNSPVQEFTVPHDLRTATISGLKPGVDYTITVYAVTNMMHVEYSEYPISINYRTEIDKGSGSGSGSGSGSGSGSGSGSVSDVPRDLEVVAATPTSLLISWSARLKVARYYRITYGETGGNSPVQEFTVPKNVYTATISGLKPGVDYTITVYAVTRFRDYQPISINYRTEIDKPCQHHHHHH										89 nM	80.5 nM	0.74 nM	6 nM	42 nM	40 nM	10 nM	10.4 nM		inhibition of IGFR activity, H292 cells, IC50 [18]: 6 nM
E1-GS10-I1, His-tagged, non-pegylated (designed binder, bispecific EGFR/IGF-IR tandem of two 10Fn3 domains) MGVSDVPRDLEVVAATPTSLLISWVAGAEDYQYYRITYGETGGNSPVQEFTVPHDLVTATISGLKPGVDYTITVYAVTDMMHVEYTEHPISINYRTEIDKGSGSGSGSGSGSGSGSGSGSVSDVPRDLEVVAATPTSLLISWSARLKVARYYRITYGETGGNSPVQEFTVPKNVYTATISGLKPGVDYTITVYAVTRFRDYQPISINYRTEIDKPSQHHHHHH	0.66 nM	0.000338 s⁻¹	513000 M⁻¹ s⁻¹	10.2 nM and 7.53 nM	0.000389 s⁻¹ and 0.000474 s⁻¹						51 nM	0.8 nM	1 nM	36 nM	51 nM	30 nM	3.8 nM	38200 M⁻¹ s⁻¹ and 62900 M⁻¹ s⁻¹	inhibition of IGF1-stimulated IGF1R phosphorylation (Y1131), H292 cells, ELISA, IC50 [18]: 4 nM; inhibition of RH41 cell proliferation, IC50 [18]: 9 nM; inhibition of EGF-stimulated EGFR phosphorylation (Y1068), H292 cells, ELISA, IC50 [16]: 20 nM; IC50 [5]: 14.6 nM
E3-GS10-I1, non-pegylated (designed binder) VSDVPRDLEVVAATPTSLLISWLPGKLRYQYYRITYGETGGNSPVQEFTVPHDLRTATISGLKPGVDYTITVYAVTNMMHVEYSEYPISINYRTEIDKGSGSGSGSGSGSGSGSGSGSVSDVPRDLEVVAATPTSLLISWSARLKVARYYRITYGETGGNSPVQEFTVPKNVYTATISGLKPGVDYTITVYAVTRFRDYQPISINYRTEIDKPSQ	0.12 nM	0.000209 s⁻¹	1.8e+06 M⁻¹ s⁻¹	0.66 nM	0.000229 s⁻¹						25 nM	0.1 nM	6 nM	14 nM	12 nM	7 nM	0.7 nM	349000 M⁻¹ s⁻¹	
I1-GS10-E3, non-pegylated (designed binder) VSDVPRDLEVVAATPTSLLISWSARLKVARYYRITYGETGGNSPVQEFTVPKNVYTATISGLKPGVDYTITVYAVTRFRDYQPISINYRTEIDKGSGSGSGSGSGSGSGSGSGSVSDVPRDLEVVAATPTSLLISWLPGKLRYQYYRITYGETGGNSPVQEFTVPHDLRTATISGLKPGVDYTITVYAVTNMMHVEYSEYPISINYRTEIDKPSQ	0.03 nM	4.54e-05 s⁻¹	1.37e+06 M⁻¹ s⁻¹	2.48 nM	0.000291 s⁻¹	19 nM	47 nM	25 nM	42 nM									117000 M⁻¹ s⁻¹	
